The source of these data is publication PMC8567202, “Phosphoinositide-binding activity of Smad2 is essential for its function in TGF-β signaling” (The Journal of Biological Chemistry, 2021).

The subject of one assay is HeLa cells. The experiment in a line: Confocal imaging of Smad2 localization. The class given is cell-based. The protocol: Supplemental Fig. S1. Confocal images of endogenous Smad2 and exogenously expressed EGFP-Smad2 in HeLa cells before (A) and 10 min after (B) TGF-β stimulation.
Endogenous Smad2 images were obtained by immunostaining using the Smad2-specific antibody. 10 ng/ml TGF-β was used for stimulation. Scale bars indicate 10 μm.
Supplemental Fig. S2. Suppression of endogenous Smad2 expression in HeLa cells by siRNA.
Western blot analysis showing that expression of endogenous Smad2 in HeLa cells was successfully suppressed by siRNA. 30 nM siRNA-3 was routinely used for knockdown experiments. For re-introduction of mouse Smad2 to these cells, see Fig. 5A. Glyceraldehyde 3-phosphate dehydrogenase (GAPDH) was used as a gel loading control. […]

The nature of a further assay: SPR PtdInsP selectivity. Particulars: RU/RUmax, 100 nM protein. The class given is binding. An excerpt: It has been generally thought that Smad2 and Smad3 are targeted to the activated TGF-β signaling complex by direct interaction with TβRI ([1], [2]) or via SARA ([7]). However, it has been shown that many cytosolic proteins that are targeted to membrane proteins or membrane-anchored signaling complexes have affinity for membrane lipids ([14]), phosphoinositides (PtdInsPs) in particular, and that their membrane recruitment is mediated by coincident lipid–protein and protein–protein interactions ([15], [16]). […] We thus measured the binding of bacterially expressed Smad2 to large unilamellar vesicles (LUVs) containing various lipids by surface plasmon resonance (SPR) analysis ([19], [20]). Lipid selectivity determined by SPR analysis is typically reported as the relative resonance unit (RU) values for different lipids at a given protein concentration ([21], [22]). […] We thus estimated RUmax for different lipid species by employing the highest protein concentration experimentally feasible (e.g., 1 μM) and determined RU/RUmax for different lipids at the protein concentration that allows robust comparison (e.g., 100 nM). Once the lipid selectivity has been determined by this semiquantitative approach, we then rigorously determined and compared Kd values for selected lipids for more accurate quantitative determination of lipid selectivity. […]

B1: EGFP-Smad2 WT: mouse EGFP-Smad2 wild type transfected into HeLa cells (protein, UniProt Q62432 2-467, looked up)
Mothers against …: SSILPFTPPVVKRLLGWKKSAGGSGGAGGGEQNGQEEKWCEKAVKSLVKKLKKTGRLDELEKAITTQNCNTKCVTIPSTCSEIWGLSTANTVDQWDTTGLYSFSEQTRSLDGRLQVSHRKGLPHVIYCRLWRWPDLHSHHELKAIENCEYAFNLKKDEVCVNPYHYQRVETPVLPPVLVPRHTEILTELPPLDDYTHSIPENTNFPAGIEPQSNYIPETPPPGYISEDGETSDQQLNQSMDTGSPAELSPTTLSPVNHSLDLQPVTYSEPAFWCSIAYYELNQRVGETFHASQPSLTVDGFTDPSNSERFCLGLLSNVNRNATVEMTRRHIGRGVRLYYIGGEVFAECLSDSAIFVQSPNCNQRYGWHPATVCKIPPGCNLKIFNNQEFAALLAQSVNQGFEAVYQLTRMCTIRMSFVKGWGAEYRRQTVTSTPCWIELHLNGPLQWLDKVLTQMGSPSVRCSSMS
modifications: EGFP fusion
notes: mouse EGFP-Smad2 wild type transfected into HeLa cells
Consider B1, for which the “localization in unstimulated cells” value in the assay with HeLa cells is on record as “mostly distributed in the cytoplasm with little prelocalization to the PM”.

B2: Smad2 WT: bacterially expressed full-length Smad2 wild-type (protein)
chain: MSSILPFTPPVVKRLLGWKKSAGGSGGAGGGEQNGQEEKWCEKAVKSLVKKLKKTGRLDELEKAITTQNCNTKCVTIPSTCSEIWGLSTANTVDQWDTTGLYSFSEQTRSLDGRLQVSHRKGLPHVIYCRLWRWPDLHSHHELKAIENCEYAFNLKKDEVCVNPYHYQRVETPVLPPVLVPRHTEILTELPPLDDYTHSIPENTNFPAGIEPQSNYIPETPPPGYISEDGETSDQQLNQSMDTGSPAELSPTTLSPVNHSLDLQPVTYSEPAFWCSIAYYELNQRVGETFHASQPSLTVDGFTDPSNSERFCLGLLSNVNRNATVEMTRRHIGRGVRLYYIGGEVFAECLSDSAIFVQSPNCNQRYGWHPATVCKIPPGCNLKIFNNQEFAALLAQSVNQGFEAVYQLTRMCTIRMSFVKGWGAEYRRQTVTSTPCWIELHLNGPLQWLDKVLTQMGSPSVRCSSMS
modifications: left off: His6, N-terminal, state not stated
notes: bacterially expressed full-length Smad2 wild-type
In the case of B2, in the assay “SPR PtdInsP selectivity”, the PtdInsP selectivity result is on record as “significant degree of selectivity for POPC/POPS/PI(4,5)P2 (77:20:3) over other PtdInsP-containing vesicles”.
